# Results: article PMC11925332, “Structural Insights and Reaction Profile of a New Unspecific Peroxygenase from Marasmius wettsteinii Produced in a Tandem-Yeast Expression System” (ACS Chemical Biology, 2024)
# B1: MweUPO-1 (Marasmius wettsteinii) (protein)
# chain: SAHPWKAPGPNDSRGPCPGLNTLANHGFLPRNGRNISVPMIVKAGFEGYNVQSDILILAGKVGMLTSREADTISLEDLKLHGTIEHDASLSREDVAIGDNLHFNEAIFTTLANSNPGADVYNISSAAQVQHDRLADSVARNPNVTNTDLTATIRSSESAFYLTVMSAGDPLRGEAPKKFVNVFFQEERMPIKEGWKRSTTPINLPLLGPIIDRITELSDWKPTGDNCGAIVLGPGL
# Columns and labels:
# [1] = biological target: Recombinant unspecific peroxygenase MweUPO-1 from Marasmius wettsteinii (Marasmius wettsteinii); test: crystal structure; deglycosylated (Endo H) MweUPO-1, 11 mg/mL in 50 mM sodium citrate pH 5.6; sitting-drop vapor diffusion at 18 °C, 10-20% (v/v) PEG 4000, 0.2 M (NH4)2SO4; space group P43212, two molecules per asymmetric unit
# purified protein [2] = substrate: CCn1c(=NN=c2sc3cc(S(=O)(=O)O)ccc3n2CC)sc2cc(S(=O)(=O)O)ccc21; test: purified protein; settings: 2 mM H2O2, 100 mM Britton-Robinson buffer pH 4.0 per table footnote (methods section says phosphate/citrate pH 4.0)
# purified protein [3] = substrate: COc1ccc(CO)cc1OC; test: purified protein; settings: 2 mM H2O2; 100 mM potassium phosphate pH 5.0 per table footnote (methods section says phosphate pH 7.0)
# purified protein [4] = substrate: COc1cccc(OC)c1O; test: purified protein; format: biochemical, Marasmius wettsteinii; settings: 2 mM H2O2; 100 mM potassium phosphate pH 5.0 per table footnote (methods section says phosphate pH 6.0)
Molecule,stoichiometry N [1],Km (purified protein [2]),kcat (purified protein [2]),kcat/Km (purified protein [2]),Km (purified protein [3]),kcat (purified protein [3]),kcat/Km (purified protein [3]),Km (purified protein [4]),kcat (purified protein [4]),kcat/Km (purified protein [4])
Recombinant unspecific peroxygenase MweUPO-1 from Marasmius wettsteinii (enzyme),2,–,–,–,–,–,–,–,–,–
B1,–,30 ± 3 µM,15.5 ± 0.68 s⁻¹,534000 M⁻¹ s⁻¹,260 ± 80 µM,22.5 ± 0.73 s⁻¹,87600 M⁻¹ s⁻¹,220 ± 1 µM,61.6 ± 0.85 s⁻¹,285000 M⁻¹ s⁻¹
